We go through 10 sequences from patent US20180346912.

Series [1] concerns the target T1, IFN-γ (human) (UniProt P01579).
T1 sequence: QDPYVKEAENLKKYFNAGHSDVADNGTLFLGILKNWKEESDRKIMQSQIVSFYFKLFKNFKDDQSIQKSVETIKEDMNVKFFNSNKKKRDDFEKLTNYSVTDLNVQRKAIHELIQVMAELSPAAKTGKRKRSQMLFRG
Briefly: SPR. The conditions noted are these: biotinylated DNA on SA chip, 1x PBS + 50 mM NaCl, 0.05% NP-40, 25 C.

The target of series [2] is T1, IFN-γ (human). Description: competition. To be noted: PBS, 0.005% NP-40, 37 C.
The subject of series [3] is T2, VEGF165 (human), P15692-4.
T2 sequence: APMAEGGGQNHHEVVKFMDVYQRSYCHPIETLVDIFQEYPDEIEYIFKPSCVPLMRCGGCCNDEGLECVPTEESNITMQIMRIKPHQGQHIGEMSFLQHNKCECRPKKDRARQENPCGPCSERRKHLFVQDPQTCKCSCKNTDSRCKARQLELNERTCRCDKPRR
Description: competition. To be noted: n = Ds unnatural base in DNA, phosphate buffer pH 7.4, 0.005% NP-40, 37 C.

Setting [4] is: EMSA competition vs 32P-Aptamer 47 (=1.00).
Where [5] appears, read: n = Ds unnatural base in DNA, EMSA competition vs 32P-Aptamer 49 (=1.00).

Take “TCCACTCGGGTCATTTANTAATGTAGGTNTGGGCTAGGCNGCTAGTGGA [Aptamer 49 (IFN-γ)]”: in the series with IFN-γ (human) [1] (n = Ds, 7-(2-thienyl)-3H-imidazo[4,5-b]pyridin-3-yl unnatural base in DNA), the dissociation constant Kd (in general, a measure of binding affinity in units of concentration) was 0.046 nM. In the series with IFN-γ (human) [2] (n = Ds, 7-(2-thienyl)-3H-imidazo[4,5-b]pyridin-3-yl unnatural base in DNA, reference, EMSA competition), this sequence yielded a binding signal of 1. In series [3] (setting [4]), “GCGGTAAGCCGCGTCCGAAGGGGCNTGCGGCGANCCCGAATGGGTCCGC [Aptamer 49GC (VEGF)]” came in with a binding signal of 1.5.

For the sequence “GCGGTAAGCCGCGTCCGAAGGGGCNTGCGGCGANCCCGAATGGGTCCGCCGCGAAGCG [Aptamer 58GCmh (VEGF)]”, the binding signal in series [3] (setting [4]) amounted to 1.59. Consider “CCCGCCCGGGTCCGCGAAGCGGTAGGTNTGGGCTAGGCNGCTGGCGGGCGCGAAGCG [Aptamer 57GCmh (IFN-γ)]”, for which, in the series with IFN-γ (human) [1] (n = Ds unnatural base in DNA), the dissociation constant (Kd) worked out at 0.033 nM. Moreover, the binding signal with IFN-γ (human) [2] (setting [5]) turned out to be 1.53.

Consider “CCCGCCCGGGTCGCCTANTGGCGTAGGTNTGGGCTAGGCNGCTGGCGGGCGCGAAGCG [Aptamer 58GC (IFN-γ)]”, for which the binding signal with IFN-γ (human) [2] (setting [5]) came to 0.24. In series [3] (setting [4]), “GCGGTAAACTGCGTCCGAAGGGGCNTGCAGTGANCCCGAATGGGTCCGC [Aptamer 49 (VEGF)]” yielded a binding signal of 1.53.

On to “TCCACTCGGGTCATTTANTAATGTAGGTNTGGGCTAGGCNGCTAGTGGACGCGAAGCG [Aptamer 58 (IFN-γ)]”, for which the Kd with IFN-γ (human) [1] (n = Ds unnatural base in DNA) was 0.038 nM. Also, the binding signal with IFN-γ (human) [2] (setting [5]) came to 1.29.

In the case of “TCCACTCGGGTCCGCGAAGCGGTAGGTNTGGGCTAGGCNGCTAGTGGACGCGAAGCG [Aptamer 57mh (IFN-γ)]”, the binding signal with IFN-γ (human) [2] (setting [5]) worked out at 1.4. Turning to “CGGTAAACTGCGTCCGAAGGGGCNTGCAGTGANCCCGAATGGGTCCG [Aptamer 47 (VEGF)]”, the binding signal in series [3] (reference) was determined as 1. In series [3] (setting [4]), “GCGGTAAACTGCGTCCGAAGGGGCNTGCAGTGANCCCGAATGGGTCCGCCGCGAAGCG [Aptamer 58mh (VEGF)]” yielded a binding signal of 1.58.
